Numbering of substitutions follows the chain as printed.
T1: recombinant soluble FcγRIIb (human, UniProt P31994 43-217)
T1 construct: extracellular domain; also called rsFcγRIIb
T1 sequence (looked up): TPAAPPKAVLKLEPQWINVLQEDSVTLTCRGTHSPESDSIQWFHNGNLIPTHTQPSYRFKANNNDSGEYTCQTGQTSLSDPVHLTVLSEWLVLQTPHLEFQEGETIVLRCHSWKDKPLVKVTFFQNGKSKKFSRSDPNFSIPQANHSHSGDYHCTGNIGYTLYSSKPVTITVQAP

T2: human FcγRIIb expressed on the cell surface (human, UniProt P31994 43-310)
T2 sequence (looked up): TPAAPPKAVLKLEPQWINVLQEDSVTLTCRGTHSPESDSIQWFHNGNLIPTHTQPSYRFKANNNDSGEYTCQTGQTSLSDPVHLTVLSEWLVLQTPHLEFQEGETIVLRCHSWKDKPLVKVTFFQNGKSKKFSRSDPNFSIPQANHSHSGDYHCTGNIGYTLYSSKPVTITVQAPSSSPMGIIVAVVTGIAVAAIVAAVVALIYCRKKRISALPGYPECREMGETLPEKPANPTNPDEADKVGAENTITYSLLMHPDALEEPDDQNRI

T3: recombinant soluble FcγRIIa-Arg131 (human, UniProt P12318 34-217)
T3 construct: extracellular domain; Arg131 allelic form; also called rsFcγRIIa-R131
T3 sequence (looked up): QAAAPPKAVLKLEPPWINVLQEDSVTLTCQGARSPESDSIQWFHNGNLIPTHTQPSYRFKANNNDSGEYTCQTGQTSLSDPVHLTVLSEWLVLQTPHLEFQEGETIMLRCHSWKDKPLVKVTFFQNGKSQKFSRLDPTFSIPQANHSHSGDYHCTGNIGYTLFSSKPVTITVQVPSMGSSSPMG

T4: human FcγRIIa-H131 expressed on the cell surface (human, UniProt P12318 34-317)
T4 construct: whole, on cells
T4 sequence (looked up): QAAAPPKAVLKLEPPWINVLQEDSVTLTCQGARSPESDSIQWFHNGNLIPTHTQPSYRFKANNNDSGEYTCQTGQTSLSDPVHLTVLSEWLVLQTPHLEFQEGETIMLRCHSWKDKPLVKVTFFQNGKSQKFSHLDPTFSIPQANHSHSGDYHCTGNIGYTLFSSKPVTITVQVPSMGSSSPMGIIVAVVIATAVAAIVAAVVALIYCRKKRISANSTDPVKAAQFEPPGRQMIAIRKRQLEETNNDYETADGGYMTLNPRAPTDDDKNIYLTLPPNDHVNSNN

T5: human FcγRIIa-R131 expressed on the cell surface (human, UniProt P12318 34-317)
T5 construct: whole, on cells
T5 sequence (looked up): T4 sequence (looked up) with H134R

B1: chimeric anti-TNP human IgG2-FLGG (antibody)
heavy: EVQLQESGPSLVKPSQTLSLTCSVTGDSITSGYWNWIRQVPGNKLEYMGFINYSGNTYYNPSLRSRISITRDTSKNQYFLHLNSVTTEDTATYYCARANWDVFAYWGQGTLVTVSAASTKGPSVFPLAPCSRSTSESTAALGCLVKDYFPEPVTVSWNSGALTSGVHTFPAVLQSSGLYSLSSVVTVPSSNFGTQTYTCNVDHKPSNTKVDKTVERKCCVECPPCPAPEFLGGPSVFLFPPKPKDTLMISRTPEVTCVVVDVSHEDPEVQFNWYVDGVEVHNAKTKPREEQFNSTFRVVSVLTVVHQDWLNGKEYKCKVSNKGLPAPIEKTISKTKGQPREPQVYTLPPSREEMTKNQVSLTCLVKGFYPSDIAVEWESNGQPENNYKTTPPMLDSDGSFFLYSKLTVDKSRWQQGNVFSCSVMHEALHNHYTQKSLSLSLGK
light: not shown
notes: The entry includes a leader; the C-terminal LGK may differ
B2: Anti-TNP mAb formatted as IgG2-FLGG-SELF mutant (antibody)
heavy: B1 heavy with S263E, L324F
light: not shown
B3: Anti-TNP mAb formatted as IgG2-FEGG-SELF mutant (antibody)
heavy: B1 heavy with L231E, S263E, L324F
light: not shown
B4: chimeric anti-TNP human IgG2-LLGG (antibody)
heavy: B1 heavy with F230L
light: not shown
notes: The entry includes a leader
B5: chimeric anti-TNP human IgG4-SELF (antibody)
heavy: EVQLQESGPSLVKPSQTLSLTCSVTGDSITSGYWNWIRQVPGNKLEYMGFINYSGNTYYNPSLRSRISITRDTSKNQYFLHLNSVTTEDTATYYCARANWDVFAYWGQGTLVTVSAASTKGPSVFPLAPCSRSTSESTAALGCLVKDYFPEPVTVSWNSGALTSGVHTFPAVLQSSGLYSLSSVVTVPSSSLGTKTYTCNVDHKPSNTKVDKRVESKYGPPCPSCPAPEFLGGPSVFLFPPKPKDTLMISRTPEVTCVVVDVEQEDPEVQFNWYVDGVEVHNAKTKPREEQFNSTYRVVSVLTVLHQDWLNGKEYKCKVSNKGFPSSIEKTISKAKGQPREPQVYTLPPSQEEMTKNQVSLTCLVKGFYPSDIAVEWESNGQPENNYKTTPPVLDSDGSFFLYSRLTVDKSRWQEGNVFSCSVMHEALHNHYTQKSLSLSLGK
light: not shown
B6: chimeric anti-TNP human IgG2 (IgG2-WT) (antibody)
heavy: EVQLQESGPSLVKPSQTLSLTCSVTGDSITSGYWNWIRQVPGNKLEYMGFINYSGNTYYNPSLRSRISITRDTSKNQYFLHLNSVTTEDTATYYCARANWDVFAYWGQGTLVTVSAASTKGPSVFPLAPCSRSTSESTAALGCLVKDYFPEPVTVSWNSGALTSGVHTFPAVLQSSGLYSLSSVVTVPSSNFGTQTYTCNVDHKPSNTKVDKTVERKCCVECPPCPAPPVAGPSVFLFPPKPKDTLMISRTPEVTCVVVDVSHEDPEVQFNWYVDGVEVHNAKTKPREEQFNSTFRVVSVLTVVHQDWLNGKEYKCKVSNKGLPAPIEKTISKTKGQPREPQVYTLPPSREEMTKNQVSLTCLVKGFYPSDIAVEWESNGQPENNYKTTPPMLDSDGSFFLYSKLTVDKSRWQQGNVFSCSVMHEALHNHYTQKSLSLSLGK
light: not shown
notes: also called parental IgG2; wild type IgG2
B7: anti-TNP IgG2-SELF (antibody)
heavy: B6 heavy with S262E, L323F
light: not shown

What was measured:
[1] = biological target: T1, recombinant soluble FcγRIIb; test: BLI (Octet); anti-TNP IgG captured on TNP-BSA-biotin, rsFcγR in solution; global 1:1 Langmuir fit
Procedure: (§1) Affinity measurements of IgG:FcR interaction using Bio-Layer Interferometry (OCTET) TNP-BSA was reacted with the EZ-Link™ biotinylation reagent (ThermoFisher Scientific) according to the manufacturer's instructions. The resulting TNP-BSA-biotin (5 μg/ml, 30 sec) was captured to ˜0.8 nm on streptavidin BLI probes using an Octet Red96 (ForteBio; Molecular Devices LLC, San Jose, CA, United States of America) then loaded with anti-TNP IgG (4 μg/ml, 75 sec). A baseline was established (60 sec) followed by the association and dissociation (90s) of a concentration series (15 nM to 20 μM) of rsFcγRIIa-R131 or rsFcγRIIb. Regeneration after each initial reaction TNP-BSA-biotin capture and the subsequent binding cycles used 10 mM HCl.

[2] = biological target: T2, human FcγRIIb expressed on the cell …; test: cell-based or functional assay
[3] = biological target: T6, human FcγRIIIa-V158 expressed on the cell surface (human, UniProt P08637 17-254); test: flow cytometry; immune complexes on IIA1.6 cells expressing the FcγR
T6 construct: whole, on cells; Co-expressed with the FcR common γ chain (FcRγ-EGFP)
Procedure: (§2) Antibody FcγR binding was measured using either immune complexes or monomeric IgG. Immune complexes were generated by incubating the anti-TNP antibodies (parental or mutant anti-TNP IgG) with TNP-BSA at a 2:1 ratio (40 μg/ml:20 μg/ml) for 30 minutes at 37° C. then 10 minutes at 4° C. […] The cells were washed twice, resuspended in […] PBS/0.5% BSA and 10,000 viable cells analysed in at least three experiments. Monomer IgG binding (MFI) were fitted to a single binding site model to determine binding affinity (KA). Similarly immune complex binding is reported as apparent affinity (K app).

[4] = biological target: T7, human FcγRIIIa-F158 expressed on the cell surface (human, UniProt P08637 17-254); test: as above
T7 construct: whole, on cells; Co-expressed with the FcR common γ chain (FcRγ-EGFP)
Procedure: as §2

[5] = biological target: T2, human FcγRIIb expressed on the cell …; test: flow cytometry; monomeric IgG on IIA1.6 cells expressing FcγRIIb, single site fit of MFI
Procedure: as §2
In an attempt to further improve FcγRIIb specificity, two residues in CH2 of the Fc domain were additionally modified (see Table 1). Particularly, two mutations S267E and L328F (SELF) which have been used in the IgG1 backbone (Chu S Y et al., Mol Immunol 45(15):3926-3933, 2008) were introduced into the IgG2- and IgG4-based mAbs, IgG2-FLGG, IgG2-FEGG and IgG4-FEGG, as well as the parental IgG4 antibody. The antibodies were then tested for specificity (see FIGS. 4-6) and inhibitory potency in allergen specific (FIG. 3) and anti-IgE BAT (FIG. 7). Several effects were apparent.

[6] = biological target: T3, recombinant soluble FcγRIIa-Arg131; test: BLI (Octet); anti-TNP IgG captured on TNP-BSA-biotin, rsFcγR in solution; global 1:1 Langmuir fit
Procedure: as §1

[7] = biological target: T8, human FcγRI expressed on the cell surface (human, UniProt P12314 16-374); test: flow cytometry; monomeric IgG on IIA1.6 cells expressing FcγRI
T8 construct: whole, on cells; Co-expressed with the FcR common γ chain
Procedure: as §2

[8] = biological target: T6, human FcγRIIIa-V158 expressed on the …; test: flow cytometry; immune complexes with TNP-BSA on IIA1.6 cells expressing the FcγR
Procedure: as §2
(§3) The interaction of the mutant IgGs with the human FcγRs on the cell surface was evaluated by flow cytometry and compared to the binding of parental IgG2 or IgG4 as well as to IgG1, the “universal” ligand for all human FcγR. Binding to the low affinity human FcγR (FcγRIIb, FcγRIIa, and FcγRIII) was performed using immune complexes (FIG. 1A-E). Binding to the high affinity FcγRI was determined using monomeric IgG (FIG. 1F). […] Uncomplexed, monomeric IgG1 and IgG4, but not IgG2, bound to the high affinity FcγRI.

[9] = biological target: T4, human FcγRIIa-H131 expressed on the …; test: as above
Procedure: as §2, §3

[10] = biological target: T7, human FcγRIIIa-F158 expressed on the …; test: as above
Procedure: as §2, §3

[11] = biological target: T5, human FcγRIIa-R131 expressed on the …; test: as above
Procedure: as §2, §3

T7 sequence (P08637 17-254): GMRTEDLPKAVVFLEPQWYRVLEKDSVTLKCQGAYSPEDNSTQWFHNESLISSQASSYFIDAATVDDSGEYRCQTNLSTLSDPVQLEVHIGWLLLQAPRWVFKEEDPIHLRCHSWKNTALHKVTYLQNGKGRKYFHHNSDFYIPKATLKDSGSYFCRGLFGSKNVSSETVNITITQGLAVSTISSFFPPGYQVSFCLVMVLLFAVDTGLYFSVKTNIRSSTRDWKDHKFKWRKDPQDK
T6 sequence (P08637 17-254 F176V): as the sequence (P08637 17-254) above, with F160V counted along it
T8 sequence (P12314 16-374): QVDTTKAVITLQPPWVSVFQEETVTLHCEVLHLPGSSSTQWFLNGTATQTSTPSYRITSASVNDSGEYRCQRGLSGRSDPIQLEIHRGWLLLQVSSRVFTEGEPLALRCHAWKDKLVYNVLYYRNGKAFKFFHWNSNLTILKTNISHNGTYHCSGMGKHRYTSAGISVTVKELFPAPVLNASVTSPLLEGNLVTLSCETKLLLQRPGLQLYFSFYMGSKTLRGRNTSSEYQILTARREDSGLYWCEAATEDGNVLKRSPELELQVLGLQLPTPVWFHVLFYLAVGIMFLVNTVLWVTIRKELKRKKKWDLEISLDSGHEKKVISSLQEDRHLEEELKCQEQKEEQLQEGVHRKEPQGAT

Binder | Ka [1] | IC50 of inhibition of basophil activation (whole blood BAT) [2] | Ka [6] | also measured
B1 | 830000 M⁻¹ | 1.6 µg/mL | – | % inhibition of Api m 1 induced basophil activation (washed blood BAT) [2]: 85%
B2 | 1.03e+08 M⁻¹ | 0.24 µg/mL | 6.3e+08 M⁻¹ | binding result [3]: no binding; binding result [4]: no binding; Ka [5]: 8.9e+07 M⁻¹
B3 | 2.9e+07 M⁻¹ | 0.38 µg/mL | 1.88e+08 M⁻¹ | Ka [5]: 3.2e+07 M⁻¹; binding result [7]: no binding
B4 | 800000 M⁻¹ | – | – | % inhibition of Api m 1 induced basophil activation (washed blood BAT) [2]: 81%
B5 | – | 1.1 µg/mL | – | –
B6 | 59000 M⁻¹ | – | – | binding result [8]: no binding; binding result [9]: binds; binding result [10]: no binding; binding result [11]: no binding; binding result [7]: no binding
B7 | 3.4e+07 M⁻¹ | – | 9.1e+07 M⁻¹ | –

— US20240018269A1 (MACFARLANE BURNET INSTITUTE FOR MEDICAL RESEARCH AND PUBLIC …, published 2024)
